According to the DeepSol protein solubility set:

Assay: soluble on expression in E. coli; label from the status in PepcDB or PDB records

Row | Sequence | soluble on expression in E. coli
1 | MIDLYYAPTPNGHKITLFLEEAELAYRLLKVDISKGNQFRPDFLAISPNNKIPAIVDHAPADGGQPLSLFESGEILLYLAEKSGKLLSGELRERHTTLQWLFWQVGGLGPMLGQNHHFNHFAPQAIPYAIERYQVETQRLYNVLNKRLETSPWLGGDHYSIADIASWPWVNAHQRQRIDLDTYPAVYNWFERIRTRPATARALLQAQLHCNSTKA | not soluble
2 | MGAIEDIYEDLETDVPEEEFREAVEEKVEQMGGLADEETAAMLLAHELNENEVNAIADIEPGMDEVKFLAKVMAIGDLKTFERDDEDEDGRVINVEAADESGSLRLAFWDGQAVDIDEGKLEVGDVLRVKGRPKDGYNGLEVSVDKAEPDEDATIDVEPGAGSSIDALTMGQSDVTLRGLVLDTDSIRTFDRDDGSEGRVSNLTLGDETGRIRVTLWDDRADRADELDAGAAVEIIDGYVRERDGSLELHVGDQGAVDEVEDDVAFEPDADPIAEVELEETADIAGVVRSADPKRTFDRDDGSEGQVRNVRIQDATGDIRVALWGDKADKDIAPGDEVLAADVEIQDGWQDDKEASASWNSTIVVLDDGADLATGGAGGGASAETTDAEHAGLSSFGDEGDDTDADSSGNEAAAVSAGTGDTSPDGGAQSAGQQVEFTGTVVQTGDPVVLDDGEQTMSVETGERVQLGQEITVRGELRDDRLHAEDVFLEHHHHHH | not soluble
3 | VADTDGHYRVRAITEISSFNETLGATFSDKEFDTIGGLVINKFGRLPKNGESITIEGFNFTVTRADSRRLHLLKVERIEPGVVEDADSHDSV | not soluble
4 | RVLNLEEGPDAFGDYAREKLFVRARFAARQVLDSYSHDIPEEFMASLRRRFEHDINADEDDDDAMTPEERRKIQERRFALFNKVRLEALYASQAELLRARSERDVDPMIVDEVLFEIDSQIIAAEKSTR | not soluble
5 | MKYAVLIGDGMADYPIEELGSRTILQAARTPAMDSIAARGKTGLAKTVPEGFPPGSDVANMSIFGYDPAIYYSGRAPLEAASMGVALAADDVAFRCNLITIENGKIKDYSAGHISSDEAEILIDTLDSELRTEKVRFYPGISYRHLIVAGNDLGAETECLEHHHHHH | soluble
6 | MLFLDSQFVYGAGAQLFNHFCYFFGTQQKFPPFLSIDENQYIIFIATEQFIREIKLLIALLLNENTAKYFQKALLCLKERKLVKIAKVGNVIEFKNGLTGVVEKVNENSVIVDVTIMDNYRDLELDSLTVVNHKNYKIIRDSYLEHHHHHH | soluble
7 | MIQKGCTPIEEGSDSEPQAETVPEEADYEAVPVEAYGLAMLRGMGWKPGKGIGNTFSQVVKPRVNSIRPKGLGLGANRMEAQDLASVGSHHPPRPDGDRENDKEGQPQGLMHGRAVVVLSGPYRGLYGKVEGLDPDNVRAMVRLAVGNRIVTVSEYCLRPVSQQEFDSHTSKPGHVSQTSTEQQNRATGTASSLKAAQNQEDSKRRQKGSEKKRKHSPDRQDGPVPKTEKAAPRNKHWLHRDLRVRFIDKLHKSGRYYNTKMTIEDVLSPDTCVCRTDEGRVLEDVREDMLETLIPKGEGHRVMVVLGPHAGKVGLLRSRDRAQSHALVQLRRENQVVELHYNAICQYMGPGDSDED | soluble
8 | MGHHHHHHSHQGEEELVSQTDVKTFLEALPQESWQNKHAGSNGNRATNGAPSLVSRGMQGASANTLNSETSTKRAAVYRMNRNHRGLCVIVNNHSFTSLKDRQGTHKDAEILSHVFQWLGFTVHIHNNVTKVEMEMVLQKQKCNPAHADGDCFVFCILTHGRFGAVYSSDEALIPIREIMSHFTALQCPRLAEKPKLFFIQACQGEEIQPSVSIEADALNPEQAPTSLQDSIPAEADFLLGLATVPGYVSFRHVEEGSWYIQSLCNHLKKLVPRMLKFLEKTMEIRGRKRTVWGA | not soluble
9 | MAGASVKVAVRVRPFNSREMSRDSKCIIQMSGSTTTIVNPKQPKETPKSFSFDYSYWSHTSPEDINYASQKQVYRDIGEEMLQHAFEGYNVCIFAYGQTGAGKSYTMMGKQEKDQQGIIPQLCEDLFSRINDTTNDNMSYSVEVSYMEIYCERVRDLLNPKNKGNLRVREHPLLGPYVEDLSKLAVTSYNDIQDLMDSGNKPRTVAATNMNETSSRSHAVFNIIFTQKRHDAETNITTEKVSKISLVDLAGSERADSTGAKGTRLKEGANINKSLTTLGKVISALAEMDSGPNKNKKKKKTDFIPYRDSVLTWLLRENLGGNSRTAMVAALSPADINYDETLSTLRYADRAKQIRNTVSVNHHHHH | soluble
10 | MCGIVGYIGYDNAKELLLKGLEKLEYRGYDSAGIAVVNDDNTTVFKEKGRIAELRKVADSSDFDGPVGIGHTRWATHGVPNHENSHPHQSSNGRFTLVHNGVIENYEELKGEYLQGVSFISETDTEVIVQLVEYFSNQGLSTEEAFTKVVSLLHGSYALGLLDAEDKDTIYVAKNKSPLLLGVGEGFNVIASDALAMLQVTSEYKEIHDHEIVIVKKDEVIIKDADGNVVERDSYIAEIDASDAEKGVYAHYMLKEIHEQPAVMRRIIQEYQDAEGNLKIDQDIINDVKEADRIYVIAAGTSYHAGLVGKEFLEKWAGVPTEVHVASEFVYNMPLLSEKPLFVYISQSGETADSRAVLVETNKLGHKSLTITNVAGSTLSREADHTLLLHAGPEIAVASTKAYTAQIAVLSILSQIVAKEHGREADIDLLRELAKVTTAIEAIVDDAPIMEQIATDFLETTRNAFFIGRTIDYNVSLEGALKLKEISYIQAEGFAGGELKHGTIALIEEGTPVVGLATQEKVNLSIRGNVKEVVARGAHPCIISMEGLEKEGDTYVIPHVHELLTPLVSVVALQLISYYAALHRDLDVDKPRNLAKSVTVE | not soluble
11 | MACTGYEELRKWFLDKMVNACRAIRDQKEDQSNSAAKKAMLYIQENYNKDISLDDVSGIVNISPYYFSKIFKEETGENFIEYVTKVRIEKAKEFLAQPDISIKEAGIRSGYTDPNYFSRIFKKQTDMTPSEYKTRYGK | not soluble
12 | MREVISIHIGQAGVQIGNACWELYCLEHGIQPDGQMPSDKSLGGSDDSFSTFFSETGSGRHVPRAVMVDLEPTVIDEIRTGTYRSLFHPEQLITGKEDAANNYARGHYTIGKEIIDLTLDRIRRLADNCTGLQGFLVFHSFGGGTGSGFTSLLMERLSVDYGKKAKLEFSIYPAPQVSTAVVEPYNSILTTHTTLEHSDCSFMVDNEAIYDICRRNLDIERPSYTNLNRLIGQIVSSITASLRFDGALNVDLTEFQTNLVPYPRIHFPLATFSPVISAEKAYHEQLSVAEITNMCFEPHNQMVKCDPRHGKYMAVCLLFRGDVVPKDVNAAIATIKTKRSIQFVDWCPTGFKVGINYQPPTVVPGGDLAKVPRAVCMLSNTTAIAEAWARLDHKFDLMYAKRAFVHWYVGEGMEEGEFSEAREDLAALEKDYEEVGVDSMEDNGEEGDEY | not soluble
13 | MASWTLVDASAIAVRHPYTFYKPDAETIDRVAAGESVKLIFAFDTDNPDAPRAERLWVTVEGIEADGAFSGRLDNYPQYIRDLSLGERIVFEARHIINTEHDPRETPISRYARRCFVTRRVIDEGKAVGYLYREAPEEENDSGWRLMAGDESDDYMNTAGTTAYVSLGSVLNADDSILPLLDAPPGRAFERLADGSFIEVQGPEG | not soluble
14 | MVTINNARKILQRVDTLPLYLHAYAFHLNMRLERVLPADLLDIASENNLRGVKIHVLDGERFSLGNMDDKELSAFGDKARRLNLDIHIETSASDKASIDEAVAIALKTGASSVRFYPRYEGNLRDVLSIIANDIAYVRETYQDSGLTFTIEQHEDLKSHELVSLVKESEMESLSLLFDFANMINANEHPIDALKTMAPHITQVHIKDALIVKEPGGLGHKACISGQGDMPFKALLTHLICLGDDEPQVTAYGLEEEVDYYAPAFRFEDEDDNPWIPYRQMSETPLPENHLLDARLRKEKEDAINQINHVRNVLQQIKQEANHLLNH | soluble
15 | MLKLASSLRTGLISRSIRTLAPTVNPAEQQQVQAVLPDKLYSSVEIEYRGHDKAVLKSYTSFLQQVCQHLEIPQGRLEVLPYIRWVQPALRSKFVHKKYKLHYETRTHISKLEILNVTGSTASTFLEYIQRNIPEGVGMRVGFTELQPLPLTIQKN | not soluble
16 | VTDILREIGMIARALDSISNIEFKELSLTRGQYLYLVRVCENPGIIQEKIAELIKVDRTTAARAIKRLEEQGFIYRQEDASNKKIKRIYATEKGKNVYPIIVRENQHSNQVALQGLSEVEISQLADYLVRMRKNVSEDWEFVKKGNTRNY | soluble
17 | MGSDKIHHHHHHVAETTTEQTIQKASSAIHYNAFSHNDYWRERPLLDALSFRFNCVEADLWLIDDELYVSHDRPEPNPAITFENLYLKPLVARIQANGGKVYPGSDRPFYLMVDCKAQGEEMYKLLKKQMEPYKEYFCSVDNGEYKEGAVLFFLSGDRPKNSLPKENSRFTFLDGQIKDLGQGIPASLAPVISDNYSDFFTWKGEGEMPADQLQKMREIIRKVHDEGKLFRWWGAPDTEQFKRFFIKEGVDLVGADDLNGLYNVLNER | not soluble
18 | MLPSHRSPDSATHDRIRKMTMNAMPQTAAQNETLHTCSIIVDDAQDFSPMLLDAGRDDTLISESMIPQIRTVAALIAAERHDFSRSSPAEFTDAADFFAARILVLGVRRFHLDVSLLQILKTANSRARRFAEKHRLFFTPAQAELSLNKHKNRRLLTVETEHEVENKGNPVANSLAFVRKLHTLPL | not soluble
19 | RAIFKISVAKEKEKMDSLEHNDDNQAIALSLVVKNPAVFSKTLAEVRQLLKGHDYVISRTMDSRTNSISLAHSDTVLNENDRVFVITNPQNTAVISSFIGTEVQMDRKQWIPTESHLVSRRFIVTKSELNGKTLGSLQLRKMHGMNVTRVNRAGVEMVALASLPLQVGDRLTVVGSELVMPKVEELIGNSVKRLNEPN | soluble
20 | MSLKDFRPLILVAEDDDSNFKLIKAIIGKKCDILWAKNGEEMLNLYREHTQDAHAILMDIKMPIMNGLEATRIIREEGASLPIIMQTAYAFSSDRENAMQAGASEVLVKPITVSALRGCLSSYFPEIKWEGHHHHHH | soluble
21 | MSLKVLAITGYKPFELGIFKQDDKALYYIKKAIKNRLIAFLDEGLEWILISGQLGVELWAAEAAYDLQEEYPDLKVAVITPFYEQEKNWKEPNKEQYEAVLAQADYEASLTHRPYESPLQFKQKNQFFIDKSDGLLLLYDPEKEGSPKYMLGTAEKRREQDGYPIYFITMDDLRVTVEEDSYEGHHHHHH | soluble
22 | GMKLQTTIQHEPKDGSGFDRGLREFFEYRDTGVNEATGGMFGAHVIRAIPGKEAKPTWHTHTVGFQLFYVLRGWVEFEYEDIGAVMLEAGGSAFQPPGVRHRELRHSDDLEVLEIVSPAGFATSVVDLEEARKP | soluble
23 | MTKISKIIDELNNQQADAAWITTPLNVYYFTGYRSEPHERLFALLIKKDGKQVLFCPKMEVEEVKASPFTGEIVGYLDTENPFSLYPQTINKLLIESEHLTVARQKQLISGFNVNSFGDVDLTIKQLRNIKSEDEISKIRKAAELADKCIEIGVSYLKEGVTECEVVNHIEQTIKQYGVNEMSFDTMVLFGDHAASPHGTPGDRRLKSNEYVLFDLGVIYEHYCSDMTRTIKFGEPSKEAQEIYNIVLEAETSAIQAIKPGIPLKDIDHIARNIISEKGYGEYFPHRLGHGLGLQEHEYQDVSSTNSNLLEAGMVITIEPGIYVPGVAGVRIEDDILVTNEGYEVLTHYEK | not soluble
24 | MATVSTNEFKGGLKIMLDNEPCVILENEYVKPGKGQAFNRVRIRKLLTGKVLEKTFKSGDTAEVADVVDIDLDYLYNDGEFYHFMNNSTFEQLAADAKAVGENAKWLVENNTCMLTLWNGNPIAVTPPNFVELEVTETDPGVKGDTQGTGGKPATLSTGAVVRVPLFVQIGEVIKVDTRSAEYVGRVK | soluble
25 | DAAGVSEVEVEATEIENLKAELSEMEDKFLRARAEIANMSNRNKNERELLVRYRSQDLGKKILPSIDNLERAMAIEVSDEQGESLKKGISMVLESITVALKEEG | not soluble
